Assay results as given in US20250276075A1, “METHODS OF TREATING AXL-EXPRESSING CANCERS WITH ANTI-AXL ANTIBODIES, ANTIBODY FRAGMENTS AND THEIR IMMUNOCONJUGATES” (BIOATLA, INC., priority 2020, published 2025).

Legend:
Axl [1] = target: Axl (UniProt P30530); assay: ELISA, 1:3 dilution
Axl [2] = target: Axl (UniProt P30530); assay: ELISA, 1:9 dilution
Axl [3] = target: T1, Axl (Homo sapiens, UniProt P30530); assay: Affinity ELISA of CPE mutant antibodies for binding to Axl at pH 6.0 over pH 7.4; details: heavy chain variable region mutants; for Affinity ELISA CPE mutant ratio (1:3, pH 6.0/7.4): 1:3 dilution; for Affinity ELISA CPE mutant ratio (1:9, pH 6.0/7.4): 1:9 dilution
T1 sequence (P30530 26-451 limits assumed): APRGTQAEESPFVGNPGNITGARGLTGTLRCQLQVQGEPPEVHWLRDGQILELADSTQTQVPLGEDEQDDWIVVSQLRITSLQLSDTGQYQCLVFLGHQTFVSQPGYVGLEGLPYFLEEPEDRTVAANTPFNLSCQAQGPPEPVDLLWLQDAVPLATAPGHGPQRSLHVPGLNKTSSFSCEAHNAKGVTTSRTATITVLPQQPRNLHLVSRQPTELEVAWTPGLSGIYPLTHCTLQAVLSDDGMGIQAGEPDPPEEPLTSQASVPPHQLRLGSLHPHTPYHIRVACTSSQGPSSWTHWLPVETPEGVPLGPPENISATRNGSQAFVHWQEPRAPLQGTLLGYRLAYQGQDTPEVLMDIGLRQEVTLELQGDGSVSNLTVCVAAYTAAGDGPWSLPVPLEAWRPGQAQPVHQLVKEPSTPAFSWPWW
Outline: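 Single-point mutant anti-Axl antibody library (CPE) screened by ELISA for binding at pH 6.0 versus pH 7.4, at 1:3 and 1:9 antibody dilutions, in serum with FLAG-tag detection and carbonate (Krebs-Ringer) buffer. Selection criterion: pH 6.0/pH 7.4 binding ratio ≥1.5 at either dilution.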

A549 cells = assay: Conditional cell killing by CAB-Axl-ADC (model toxin) at pH 6.0 and 7.4; assay type: cell-based; details: FIG. 11
From the text: The anti-Axl antibody of the present invention was conjugated to a model toxin (e.g., gemcitabine) to produce a conditionally active antibody-drug conjugate (CAB-Axl-ADC). The CAB-Axl-ADC was first tested to confirm that the conditional cell killing activity was not altered by the drug conjugation process.

[4] = tested on: MiaPaCa2 xenograft tumors; assay: MiaPaCa2 xenograft tumor study in mice; assay type: in vivo; details: 1 mg/kg twice weekly for 3 weeks; in comparison with the controls
Protocol: The CAB-Axl-ADC was then injected into mice bearing MiaPaCa2 xenograft tumors at a dose of 1 mg/kg twice weekly for 3 weeks. Several controls were used in this study, including naked CAB (anti-Axl antibody with no conjugation), vehicle, the toxin alone (unconjugated gemcitable), control ADC, an affinity matching anti-Axl ADC (AM ADC).

Molecule | Affinity ELISA CPE mutant ratio (1:3, pH 6.0/7.4) (Axl [1]) | Affinity ELISA CPE mutant ratio (1:9, pH 6.0/7.4) (Axl [2]) | Affinity ELISA CPE mutant ratio (1:3, pH 6.0/7.4) (Axl [3]) | Affinity ELISA CPE mutant ratio (1:9, pH 6.0/7.4) (Axl [3]) | cell killing at pH 6.0 versus pH 7.4 (A549 cells) | reduction in the size of the tumor [4]
HC-W110A (antibody, V domains shown) VH: EVQLVQSGAEVKKPGATVKISCKVSGYSFTGHTMNWIRQPPGKGLEWIGLIKPSNGGTSYNQKFKGRVTISADKSISTAYLQWSSLKASDTAMYYCAHGHYESYFAMDYAGQGTLVTVSS VL: DIQMTQSPSSLSASVGDRVTITCKASQDVSSAVAWYQQKPGQAPRLLIYWASTRHTGVPSRFSGSGSGTEFTLTISSLQPDDFATYYCQEHFSTPLTFGQGTKVEIK | 7.91 | 1.2 | 7.909 | 1.198 |  | 
CAB-Axl-ADC: anti-Axl antibody conjugated to a model toxin (e.g., gemcitabine), conditionally active antibody-drug conjugate (conjugate) VH: EVQLVQSGAEVKKPGATVKISCKVSGYSFWGATMNWIRQPPGKGLEWIGLIKPSNGGTSYNQKFKGRVTISADKSISTAYLQWSSLKASDTAMYYCAHGHYESYEAMDYWGQGTLVTVSS VL: DIQMTQSPSSLSASVGDRVTITCKASQDVVSAVAWYQQKPGQAPRLLIYWQDTRHTGVPSRFSGSGSGTEFTLTISSLQPDDFATYYCQEHFSPPLTFGQGTKVEIK |  |  |  |  | killed significantly more cells at pH 6.0 than at pH 7.4 | significantly greater reduction in the size of the tumor
HC-G111H (antibody, V domains shown) VH: EVQLVQSGAEVKKPGATVKISCKVSGYSFTGHTMNWIRQPPGKGLEWIGLIKPSNGGTSYNQKFKGRVTISADKSISTAYLQWSSLKASDTAMYYCAHGHYESYFAMDYWHQGTLVTVSS VL: DIQMTQSPSSLSASVGDRVTITCKASQDVSSAVAWYQQKPGQAPRLLIYWASTRHTGVPSRFSGSGSGTEFTLTISSLQPDDFATYYCQEHFSTPLTFGQGTKVEIK | 1.06 | 1.79 | 1.058 | 1.786 |  | 
HC-W110P (antibody, V domains shown) VH: EVQLVQSGAEVKKPGATVKISCKVSGYSFTGHTMNWIRQPPGKGLEWIGLIKPSNGGTSYNQKFKGRVTISADKSISTAYLQWSSLKASDTAMYYCAHGHYESYFAMDYPGQGTLVTVSS VL: DIQMTQSPSSLSASVGDRVTITCKASQDVSSAVAWYQQKPGQAPRLLIYWASTRHTGVPSRFSGSGSGTEFTLTISSLQPDDFATYYCQEHFSTPLTFGQGTKVEIK | 6.49 | 2.15 | 6.490 | 2.148 |  | 
